How the values were obtained:
Test in all cases: pull-down; amylose pulldown, ORC with MBP-tagged Orc4 as bait; 0.5 uM ScORC, 0.5 uM 84 bp ARS1 dsDNA, 1 uM ScCdc6, 10 uM ScMcm7 (titrations 1.5, 5, 10 uM), 2 mM ATPγS; 25 mM HEPES pH 7.5, 300 mM potassium acetate, 10 mM magnesium acetate, 1 mM DTT; on ice; maltose elution, Coomassie-stained SDS-PAGE
Conditions in all cases: both partners purified
[1] = target: T1, ScORC·DNA·Cdc6 with MBP-tagged ORC (full-length Orc6), ORC dephosphorylated with λ phosphatase (S. cerevisiae, UniProt P54784 1-914; P32833 1-620; P54790 1-616; P54791 1-529; P50874 1-479; P38826 …, ORC treated with λ phosphatase | ORC treated with λ phosphatase)
T1 construct: Orc1, S. cerevisiae, wild type; Orc2, S. cerevisiae, wild type; Orc3, S. cerevisiae, wild type; Orc4, S. cerevisiae, wild type; Orc5, S. cerevisiae, wild type; Orc6, S. cerevisiae, wild type; Cdc6, S. cerevisiae, wild type; ORC (10 uM) dephosphorylated with 16.7 units/uL λ phosphatase, 10 min, 30 °C, before assembly with DNA, Cdc6 and ATPγS; also called dephosphorylated MBP-ORC·DNA·Cdc6; source: …

[2] = target: T2, ScORC·DNA·Cdc6 with MBP-tagged ORC holding Orc6 ΔCBN/Δlinker (Orc6Δ1-269), ORC untreated (S. cerevisiae, UniProt P54784 1-914; P32833 1-620; P54790 1-616; P54791 1-529; P50874 1-479; P38826 …)
T2 construct: Orc1, S. cerevisiae, wild type; Orc2, S. cerevisiae, wild type; Orc3, S. cerevisiae, wild type; Orc4, S. cerevisiae, wild type; Orc5, S. cerevisiae, wild type; Orc6, S. cerevisiae, truncation Orc6Δ1-269 (lacks the N-terminal cyclin box fold and the flexible linker); Cdc6, S. cerevisiae, wild type; also called Orc6^ΔN269; source: MBP-ORC: High5 insect cells, purified (no TEV cleavage); Cdc6: …

[3] = target: T3, ScORC·DNA·Cdc6 with MBP-tagged ORC holding Orc6 ΔCBN/Δlinker (Orc6Δ1-269), ORC phosphorylated by CDK (S. cerevisiae, UniProt P54784 1-914; P32833 1-620; P54790 1-616; P54791 1-529; P50874 1-479; P38826 …, ORC treated with CDK; phosphorylated sites not given)
T3 construct: Orc1, S. cerevisiae, wild type; Orc2, S. cerevisiae, wild type; Orc3, S. cerevisiae, wild type; Orc4, S. cerevisiae, wild type; Orc5, S. cerevisiae, wild type; Orc6, S. cerevisiae, truncation Orc6Δ1-269 (lacks the N-terminal cyclin box fold and the flexible linker); Cdc6, S. cerevisiae, wild type; ORC phosphorylated by CDK before assembly with DNA, Cdc6 and ATPγS; also called Orc6 ΔCBN/Δlinker, …

[4] = target: T4, ScORC·DNA·Cdc6 with MBP-tagged ORC holding Orc6 ΔCBN (Orc6Δ1-120), ORC phosphorylated by CDK (S. cerevisiae, UniProt P54784 1-914; P32833 1-620; P54790 1-616; P54791 1-529; P50874 1-479; P38826 …, ORC treated with CDK; phosphorylated sites not printed | ORC treated with CDK; phosphorylated sites not given)
T4 construct: Orc1, S. cerevisiae, wild type; Orc2, S. cerevisiae, wild type; Orc3, S. cerevisiae, wild type; Orc4, S. cerevisiae, wild type; Orc5, S. cerevisiae, wild type; Orc6, S. cerevisiae, truncation Orc6Δ1-120 (lacks the N-terminal cyclin box fold); Cdc6, S. cerevisiae, wild type; ORC phosphorylated by CDK before assembly with DNA, Cdc6 and ATPγS; also called Orc6 ΔCBN, CDK; Orc6^ΔN120; source: MBP-ORC: …

[5] = target: T5, ScORC·DNA·Cdc6 with MBP-tagged ORC holding Orc6 ΔCBN (Orc6Δ1-120), ORC dephosphorylated with λ phosphatase (S. cerevisiae, UniProt P54784 1-914; P32833 1-620; P54790 1-616; P54791 1-529; P50874 1-479; P38826 …, ORC treated with λ phosphatase | ORC treated with λ phosphatase)
T5 construct: Orc1, S. cerevisiae, wild type; Orc2, S. cerevisiae, wild type; Orc3, S. cerevisiae, wild type; Orc4, S. cerevisiae, wild type; Orc5, S. cerevisiae, wild type; Orc6, S. cerevisiae, truncation Orc6Δ1-120 (lacks the N-terminal cyclin box fold); Cdc6, S. cerevisiae, wild type; ORC dephosphorylated before assembly with DNA, Cdc6 and ATPγS; also called Orc6 ΔCBN, λ phosphatase; Orc6^ΔN120; source: …

Measured: binding result

B1: S. cerevisiae Mcm7 (ScMcm7) (natural protein, UniProt P38132 1-845, looked up)
chain: MSAALPSIQLPVDYNNLFNEITDFLVTFKQDTLSSDATRNENEDENLDAENIEQHLLEKGPKYMAMLQKVANRELNSVIIDLDDILQYQNEKFLQGTQADDLVSAIQQNANHFTELFCRAIDNNMPLPTKEIDYKDDVLDVILNQRRLRNERMLSDRTNEIRSENLMDTTMDPPSSMNDALREVVEDETELFPPNLTRRYFLYFKPLSQNCARRYRKKAISSKPLSVRQIKGDFLGQLITVRGIITRVSDVKPAVEVIAYTCDQCGYEVFQEVNSRTFTPLSECTSEECSQNQTKGQLFMSTRASKFSAFQECKIQELSQQVPVGHIPRSLNIHVNGTLVRSLSPGDIVDVTGIFLPAPYTGFKALKAGLLTETYLEAQFVRQHKKKFASFSLTSDVEERVMELITSGDVYNRLAKSIAPEIYGNLDVKKALLLLLVGGVDKRVGDGMKIRGDINVCLMGDPGVAKSQLLKAICKISPRGVYTTGKGSSGVGLTAAVMKDPVTDEMILEGGALVLADNGICCIDEFDKMDESDRTAIHEVMEQQTISISKAGINTTLNARTSILAAANPLYGRYNPRLSPLDNINLPAALLSRFDILFLMLDIPSRDDDEKLAEHVTYVHMHNKQPDLDFTPVEPSKMREYIAYAKTKRPVMSEAVNDYVVQAYIRLRQDSKREMDSKFSFGQATPRTLLGIIRLSQALAKLRLADMVDIDDVEEALRLVRVSKESLYQETNKSKEDESPTTKIFTIIKKMLQETGKNTLSYENIVKTVRLRGFTMLQLSNCIQEYSYLNVWHLINEGNTLKFVDDGTMDTDQEDSLVSTPKLAPQTTASANVSAQDSDIDLQDA
notes: Mcm7, S. cerevisiae; migrates as a doublet on SDS-PAGE; source: E. coli BL21 RIL, purified (HisTrap, amylose, TEV cleavage, HisTrap, gel filtration); not shown: His6, N-terminal, cleaved; MBP, N-terminal, cleaved
binds: all assays above
